Legend:
[1] = target: CD33 and CD123 together on double-positive human AML cells; assay: cell-based or functional assay
[2] = target: CD33 and CD123 together on double-positive human AML cells; assay: calibrated flow cytometry on MOLM13 cells (CD33/CD123 double-positive)

B1: single chain triplebody SPM-2, hu(33-ds16-ds123RK) (protein)
chain: EVQLVESGGGLIQPGGSLRLSCAASGFPLTSYGVSWVRQPPGKGLEWLGVIWGDGSTNYHSALISRFTISRDNSKNTLYLQMNSLRAEDTAVYYCARDTYYPYYAMDYWGQGTTVTVSSGGGGSGGGGSGGGGSDIQMTQSPSSLSASVGDRVTITCKASQDVSTAVAWYQQKPGKAPKLLIYSASYRYTGVPSRFSGSGSGTDFTLTISSLQPEDFATYYCQQHYSTPLTFGQGTKLEIKRGGGGSGGGGSGGGGSGGGGSDIVLTQSPSSLSASVGDRVTITCKASQSVDFDGDSFMNWYQQKPGKAPKLLIYTTSNLESGVPSRFSASGSGTDFTLTISSLQPEDFATYYCQQSNEDPYTFGCGTKVEIKRGGGGSGGGGSGGGGSGGGGSEVQLVESGGGDVQPGGSLRLSCAFSGFSLRTSGMGVGWIRQAPGKCLEWVAHIWWDDDKRYNPSVKGRFTISKDTSSNTVYLQMNSLRAEDTAVYYCAQINPAWFAYWGQGTLVTVSSGGGGSGGGGSGGGGSGGGGSEVQLVESGGGLVQPGGSLRLSCAASGFTFTDYYMSWVRQAPGKCLEWLALIRSKADGYTTEYSASVKGRFTISRDDSKNSLYLQMNSLKTEDTAVYYCARDAAYYSYYSPEGAMDYWGQGTSVTVSSGGGGSGGGGSGGGGSDIQMTQSPSSLSASVGDRVTITCKASQNVDSAVAWYQQKPGKAPKALIYSASYRYSGVPSRFSGSGSGTDFTLTISSLQPEDFATYYCQQYYSTPWTFGCGTKVEIKRGGGGSHHHHHH
% specific lysis of MOLM-13 cells at 1 nM SPM-2, 4 hr time point [1]: 30.7%
Biol. Activity EC50 [pM], redirected lysis (RDL), 3 h, E:T=10:1 (MNC:MOLM-13) [1]: 14 pM
EC50 (pM), RDL cytolysis of primary MNCs of AML patient P1 with LAK cells [1]: 131 pM
EC50 (pM), RDL cytolysis of primary MNCs of AML patient P2 with LAK cells [1]: 20 pM
EC50 (pM), RDL cytolysis of primary MNCs of AML patient P3 with LAK cells [1]: 67 pM
EC50 (pM), RDL cytolysis of primary MNCs of AML patient P4 with LAK cells [1]: 32 pM
EC50 (pM), RDL cytolysis of primary MNCs of AML patient P5 with LAK cells [1]: 242 pM
EC50 (pM), RDL cytolysis of primary MNCs of AML patient P6 with LAK cells [1]: 155 pM
EC50 (pM), RDL cytolysis of primary MNCs of AML patient P7 with LAK cells [1]: 79 pM
EC50 (pM), RDL cytolysis of primary MNCs of AML patient P8 with LAK cells [1]: 133 pM
EC50 (pM), RDL cytolysis of primary MNCs of AML patient P9 with LAK cells [1]: 166 pM
EC50 (pM), RDL cytolysis of primary MNCs of AML patient P10 with LAK cells [1]: 51 pM
EC50 (pM), RDL cytolysis of primary MNCs of AML patient P11 with LAK cells [1]: 1080 pM
EC50 (pM), RDL cytolysis of primary MNCs of AML patient P12 with LAK cells [1]: 38 pM
EC50 (pM), RDL cytolysis of primary MNCs of AML patient P13 with LAK cells [1]: 245 pM
EC50 (pM), RDL cytolysis of primary MNCs of AML patient P14 with LAK cells [1]: 229 pM
EC50 (pM), RDL cytolysis of primary MNCs of AML patient P15 with LAK cells [1]: 177 pM
EC50 (pM), RDL cytolysis of primary MNCs of AML patient P16 with LAK cells [1]: 758 pM
EC50 (pM), RDL cytolysis of primary MNCs of AML patient P17 with LAK cells [1]: 125 pM
EC50 (pM), RDL cytolysis of primary MNCs of AML patient P18 with LAK cells [1]: 221 pM
EC50 (pM), RDL cytolysis of primary MNCs of AML patient P19 with LAK cells [1]: 406 pM
EC50 (pM), RDL cytolysis of primary MNCs of AML patient P20 with LAK cells [1]: 251 pM
EC50 (pM), RDL cytolysis of primary MNCs of AML patient P21 with LAK cells [1]: 22 pM
EC50 (pM), RDL cytolysis of primary MNCs of AML patient P22 with LAK cells [1]: 225 pM
EC50 (pM), RDL cytolysis of primary MNCs of AML patient P23 with LAK cells [1]: 476 pM
EC50 (pM), RDL cytolysis of primary MNCs of AML patient P24 with LAK cells [1]: 127 pM
EC50 (pM), RDL cytolysis of primary MNCs of AML patient P25 with LAK cells [1]: 541 pM
EC50 (pM), RDL cytolysis of primary MNCs of AML patient P26 with LAK cells [1]: 58 pM
EC50 (pM), RDL cytolysis of primary MNCs of AML patient P27 with LAK cells [1]: 10 pM
EC50 (pM), RDL cytolysis of primary MNCs of AML patient P28 with LAK cells [1]: 560 pM
EC50 (pM), RDL cytolysis of primary MNCs of AML patient P29 with LAK cells [1]: 70 pM
EC50 (pM), RDL lysis of CD34-enriched MNCs of AML patient P9 [1]: 43 pM
EC50 (pM), RDL lysis of CD34-enriched MNCs of AML patient P11 [1]: 681 pM
EC50, standard RDL assay, MOLM-13 targets, thawed LAK cells, 4 hr, MNC:Target 10:1 [1]: 0.024 nM

B2: candidate triplebody hu[33-ds16-ds123RK] before polishing of the sequence (protein, not shown: small tags and cut ends)
chain: EVQLVESGGGLIQPGGSLRLSCAASGFPLTSYGVSWVRQPPGKGLEWLGVIWGDGSTNYHSALISRFTISRDNSKNTLYLQMNSLRAEDTAVYYCARDTYYPYYAMDYWGQGTTVTVSSGGGGSGGGGSGGGGSDIQMTQSPSSLSASVGDRVTITCKASQDVSTAVAWYQQKPGKAPKLLIYSASYRYTGVPSRFSGSGSGTDFTLTISSLQPEDFATYYCQQHYSTPLTFGQGTKLEIKRGGGGSGGGGSGGGGSGGGGSDIVLTQSPSSLSASVGDRVTITCKASQSVDFDGDSFMNWYQQKPGKAPKLLIYTTSNLESGVPSRFSASGSGTDFTLTISSLQPEDFATYYCQQSNEDPYTFGCGTKVEIKRGGGGSGGGGSGGGGSGGGGSEVQLVESGGGDVQPGGSLRLSCAFSGFSLRTSGMGVGWIRQAPGKCLEWVAHIWWDDDKRYNPSVKGRFTISKDTSSNTVYLQMNSLRAEDTAVYYCAQINPAWFAYWGQGTLVTVSSGGGGSGGGGSGGGGSGGGGSEVQLVESGGGLVQPGGSLRLSCAASGFTFTDYYMSWVRQAPGKCLEWLALIRSKADGYTTEYSASVKGRFTISRDDSKNSLYLQMNSLKTEDTAVYYCARDAAYYSYYSPEGAMDYWGQGTSVTVSSGGGGSGGGGSGGGGSDIQMTQSPSSLSASVGDRVTITCKASQNVDSAVAWYQQKPGKAPKALIYSASYRYSGVPSRFSGSGSGTDFTLTISSLQPEDFATYYCQQYYSTPWTFGCGTKVEIKR
Kd [2]: 11 nM
